The target in the data set is T1, TALER14 (synthetic, UniProt Q56830 SEQ:262-1310).
T1 chain: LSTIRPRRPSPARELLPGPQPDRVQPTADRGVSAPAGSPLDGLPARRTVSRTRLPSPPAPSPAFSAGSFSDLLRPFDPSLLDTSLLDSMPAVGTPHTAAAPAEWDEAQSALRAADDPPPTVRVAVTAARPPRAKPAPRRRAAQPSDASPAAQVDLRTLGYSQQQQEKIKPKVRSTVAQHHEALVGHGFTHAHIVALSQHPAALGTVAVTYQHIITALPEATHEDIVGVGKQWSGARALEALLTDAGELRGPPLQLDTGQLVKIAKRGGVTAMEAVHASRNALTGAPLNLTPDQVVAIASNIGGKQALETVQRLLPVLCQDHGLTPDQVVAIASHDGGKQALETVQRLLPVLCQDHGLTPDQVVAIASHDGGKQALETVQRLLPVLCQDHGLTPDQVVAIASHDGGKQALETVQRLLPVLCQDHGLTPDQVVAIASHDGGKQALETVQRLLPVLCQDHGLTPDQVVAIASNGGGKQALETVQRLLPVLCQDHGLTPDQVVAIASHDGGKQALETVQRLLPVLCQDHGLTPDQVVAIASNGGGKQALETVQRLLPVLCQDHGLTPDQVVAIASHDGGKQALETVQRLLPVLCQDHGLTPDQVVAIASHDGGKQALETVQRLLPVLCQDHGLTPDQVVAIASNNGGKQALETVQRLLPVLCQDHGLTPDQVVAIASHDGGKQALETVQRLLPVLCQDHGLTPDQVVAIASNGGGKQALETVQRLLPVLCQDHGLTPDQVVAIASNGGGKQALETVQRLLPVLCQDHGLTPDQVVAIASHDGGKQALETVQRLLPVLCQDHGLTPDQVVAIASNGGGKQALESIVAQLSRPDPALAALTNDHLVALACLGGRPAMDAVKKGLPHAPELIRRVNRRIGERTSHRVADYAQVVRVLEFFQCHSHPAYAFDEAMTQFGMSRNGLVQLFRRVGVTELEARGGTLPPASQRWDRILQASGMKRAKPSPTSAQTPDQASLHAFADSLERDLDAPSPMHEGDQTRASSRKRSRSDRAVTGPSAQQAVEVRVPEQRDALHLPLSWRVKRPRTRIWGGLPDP
The data set can be described thus: cell_activity; HEK293, two sites flanking CMVmini. The following applies: tags: EYFP-2A upstream, SV40 NLS.

B1: T14 site (dsDNA)
DNA 1: TACCCCTCTCCGCTTCT
DNA 2: AGAAGCGGAGAGGGGTA
Turning to B1, the binding signal amounted to 1440 fold repression.
